Patent US20220048996A1 (F STAR BETA, published 2022)

Assays:
[1] = molecular target: T1, hFcγR1 (R&D Systems 1257-FC-050/CF) (human, UniProt P12314 16-288); test: SPR, antibody 100 nM on CD137-his chip co-injected with FcγR 500 nM
T1 construct: Bought; also called FcγRI
Experimental: (§1) Binding was tested on a Biacore 3000 instrument (GE Healthcare). Human OX40 (BPS Bioscience cat no 71310) and human CD137 (produced in house) biotinylated his-tagged antigens were coated onto an SA chip (GE Healthcare cat no BR100398) at 2 μM concentration. Human OX40 and human CD137 were coated on separate flow cells, while another flow cell was left blank for background subtraction. Regeneration conditions were determined to be 12 μl aqueous 10 mM glycine-HCl at pH2.0 at 20 μl/min flow rate. Antibodies (see Table 8) and human FcγRs (see Table 8) were diluted to 100 nM (antibodies) or 500 nM (human FcγRs) in HBS-P (0.01 M HEPES pH 7.4, 0.15 M NaCl, 0.005% v/v Surfactant P20, GE Healthcare, BR-1003-68) and co-injected at 20 μl/min flow rate and the dissociation was followed for 5 min.
(§2) Data analysis was performed with BiaEvaluation software version 3.2 RC1 by referencing against the blank flow cell and aligning the curves after the association of the antibody. Values for binding response at the end of the association phase were generated by subtracting the […] to normalize the effect of the antibody binding to the OX40 and CD137 receptors.

[2] = molecular target: T2, hFcγR2a (R&D Systems 1330-CD-050/CF) (human, UniProt P12318 36-218, limits assumed); test: as above
T2 construct: Bought; also called FcγRIIa
T2 sequence (looked up): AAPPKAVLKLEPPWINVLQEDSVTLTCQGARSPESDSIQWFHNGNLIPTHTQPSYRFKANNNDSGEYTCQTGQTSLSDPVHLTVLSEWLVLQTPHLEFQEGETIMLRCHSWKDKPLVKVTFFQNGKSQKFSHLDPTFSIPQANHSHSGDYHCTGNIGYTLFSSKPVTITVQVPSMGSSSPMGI
Experimental: as §1, §2

[3] = molecular target: T3, hFcγR2b (R&D Systems 1460-CD-050/CF) (human, UniProt P31994 46-217, limits assumed); test: as above
T3 construct: Bought; also called FcγRIIb
T3 sequence (looked up): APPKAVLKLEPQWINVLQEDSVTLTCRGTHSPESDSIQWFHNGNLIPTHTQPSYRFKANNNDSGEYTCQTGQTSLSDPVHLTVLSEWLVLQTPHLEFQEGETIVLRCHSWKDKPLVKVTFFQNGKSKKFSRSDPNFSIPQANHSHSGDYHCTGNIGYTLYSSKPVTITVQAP
Experimental: as §1, §2

[4] = molecular target: T4, hFcγR3a (R&D Systems 4325-FC-050/CF) (human, UniProt P08637 17-208); test: as above
T4 construct: Bought; In the ADCC bioassay FcγRIIIa stood on engineered Jurkat cells; also called FcγRIIIa
Experimental: as §1, §2

[5] = molecular target: T5, hOX40-mFc (human); test: SPR, antibody captured via anti-human Fab, dimeric antigen flowed, 1:1 fit
T5 construct: Dimeric; also called human OX40-mFc
T5 chain: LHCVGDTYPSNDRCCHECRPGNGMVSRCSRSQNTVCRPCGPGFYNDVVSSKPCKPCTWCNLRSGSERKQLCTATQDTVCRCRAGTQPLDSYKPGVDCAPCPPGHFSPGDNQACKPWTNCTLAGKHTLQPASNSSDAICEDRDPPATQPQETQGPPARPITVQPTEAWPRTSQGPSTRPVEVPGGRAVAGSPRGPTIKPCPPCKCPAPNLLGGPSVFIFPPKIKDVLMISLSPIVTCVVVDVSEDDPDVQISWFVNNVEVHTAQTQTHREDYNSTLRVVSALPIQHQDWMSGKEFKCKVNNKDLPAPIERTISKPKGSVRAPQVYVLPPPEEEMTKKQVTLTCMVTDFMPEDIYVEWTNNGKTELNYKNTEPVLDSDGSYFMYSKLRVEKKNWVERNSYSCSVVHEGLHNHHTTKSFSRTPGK
Experimental: (§3) For OX40 affinity determination a Biacore CM5 chip was coated with anti-human Fab using a Human Fab Capture Kit (GE Healthcare 28958325) according to manufacturer's conditions, to a surface density of approximately 8000 RU. […] The association time was 2 min and the dissociation time was 8 min. Running buffer was HBS-EP. Flow cells were regenerated by injecting glycine-HCl at pH 2.1 at a flow rate of 30 μl/min for 30 seconds.
(§4) The binding kinetics were fit with a 1:1 Langmuir model to generate binding association (kₐ) and dissociation (kd) rates. Equilibrium binding constants (KD) were calculated by dividing the dissociation rate by the association rate for each sample. Data analysis was performed with BiaEvaluation software version 3.2.

[6] = molecular target: T6, cOX40-mFc (cynomolgus); test: as above
T6 construct: Dimeric; also called cyno OX40-mFc
T6 chain: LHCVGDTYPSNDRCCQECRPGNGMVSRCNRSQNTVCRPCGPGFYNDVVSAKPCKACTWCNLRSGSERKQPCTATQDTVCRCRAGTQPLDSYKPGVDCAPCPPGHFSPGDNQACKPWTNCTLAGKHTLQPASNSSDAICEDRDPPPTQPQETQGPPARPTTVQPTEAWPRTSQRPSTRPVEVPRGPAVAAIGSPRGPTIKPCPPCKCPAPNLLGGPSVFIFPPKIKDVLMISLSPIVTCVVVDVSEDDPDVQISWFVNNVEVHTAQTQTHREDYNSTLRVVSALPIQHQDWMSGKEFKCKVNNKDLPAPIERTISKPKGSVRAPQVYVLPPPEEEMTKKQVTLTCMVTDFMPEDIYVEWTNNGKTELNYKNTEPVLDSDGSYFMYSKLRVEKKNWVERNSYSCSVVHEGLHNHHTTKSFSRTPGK
Experimental: as §3, §4

T1 sequence (P12314 16-288 limits assumed): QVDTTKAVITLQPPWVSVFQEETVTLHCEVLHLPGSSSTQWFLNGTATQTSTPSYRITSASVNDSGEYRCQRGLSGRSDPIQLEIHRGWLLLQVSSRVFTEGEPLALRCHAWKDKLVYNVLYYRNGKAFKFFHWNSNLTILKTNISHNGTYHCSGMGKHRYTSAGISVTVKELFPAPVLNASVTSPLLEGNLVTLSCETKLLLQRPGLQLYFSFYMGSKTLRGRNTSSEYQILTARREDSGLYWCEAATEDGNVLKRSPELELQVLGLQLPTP
T4 sequence (P08637 17-208 limits assumed): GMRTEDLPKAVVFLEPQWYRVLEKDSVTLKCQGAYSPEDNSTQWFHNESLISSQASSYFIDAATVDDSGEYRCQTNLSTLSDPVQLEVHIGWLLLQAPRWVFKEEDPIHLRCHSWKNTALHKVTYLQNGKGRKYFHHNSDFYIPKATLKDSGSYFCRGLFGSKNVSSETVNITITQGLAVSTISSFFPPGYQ

binding response at end of association phase of FcγR [1]: 246 RU
decrease of binding response at end of dissociation phase of FcγR [1]: 367 RU
binding response at end of association phase of FcγR [2]: 10.9 RU
binding response at end of association phase of FcγR [3]: 9 RU
binding response at end of association phase of FcγR [4]: 17.3 RU
Kd [5]: 0.214 nM
Kd [6]: 0.861 nM
B1: FS20-22-49AA/FS30-10-16 (bispecific antibody, human IgG1, kappa, L234A L235A)
heavy: EVQLLESGGGLVQPGGSLRLSCAASGFTFSSYDMSWVRQAPGKGLEWVSDIDPTGSKTDYADSVKGRFTISRDNSKNTLYLQMNSLRAEDTAVYYCARDLLVYGFDYWGQGTLVTVSSASTKGPSVFPLAPSSKSTSGGTAALGCLVKDYFPEPVTVSWNSGALTSGVHTFPAVLQSSGLYSLSSVVTVPSSSLGTQTYICNVNHKPSNTKVDKKVEPKSCDKTHTCPPCPAPEAAGGPSVFLFPPKPKDTLMISRTPEVTCVVVDVSHEDPEVKFNWYVDGVEVHNAKTKPREEQYNSTYRVVSVLTVLHQDWLNGKEYKCKVSNKALPAPIEKTISKAKGQPREPQVYTLPPSRDEYWDQEVSLTCLVKGFYPSDIAVEWESNGDEQFAYKTTPPVLDSDGSFFLYSKLTVDQYRWNPADYFSCSVMHEALHNHYTQKSLSLSPG
light: EIVLTQSPGTLSLSPGERATLSCRASQSVSSSYLAWYQQKPGQAPRLLIYGASSRATGIPDRFSGSGSGTDFTLTISRLEPEDFAVYYCQQSYSYPVTFGQGTKVEIKRTVAAPSVFIFPPSDEQLKSGTASVVCLLNNFYPREAKVQWKVDNALQSGNSQESVTEQDSKDSTYSLSSTLTLSKADYEKHKVYACEVTHQGLSSPVTKSFNRGEC
notes: IgG1 with LALA; also called OX40/CD137 mAb^2; copies: 2 + 2
